In the DeepSol protein solubility set:

Assay: soluble on expression in E. coli; label from the status in PepcDB or PDB records
With “MHSHLIPGIDDGSKSMEESLSLIQEFKKLGYKKIITTPHIMGDFFKNSKETIFPGLIELRASIAEAGIDIEIEAAAEYYLDEWFIEKLERNEPLLKLGGNYVLFETSYMNRPTQLHQAIFLMRSLGYIPVLAHPERYTYLYEDFKLFKEIYEMDVLFQINLNSLAGYYSKTAKLYAEKLIDNNMVDFVGTDCHGQRHIDVLAKVKVSNYYQKLQKLSILNNTLIS” the “soluble on expression in E. coli” value was “not soluble”.
For “MGSDKIHHHHHHMRISYGVENLRSLTRTPEIELRPITILIGRNSAGKSTYLRSFALMRQSLEVKSSAPILWYGDYVDFGDFDAAVSNGDKDSDITFNFRVEDLDTRDVEDEIYYYNEYAYRSSRRKISYQAVSLSISLGEQLRRTVRRRIALEIPEDRISAVASFEKDGRECSDFQINGQRLSDLIPNVAVYFRASDIFDRPVLVRQVRKDGKSLRRVVGAASEIGSAISQRLRQQVDKRISEENLAIEARRILNHPRLDPTSLQQLRLRAGNRSFRKLYDRWLKDEASTTLAEIDHLCALNHALITVGRVSSVLKGFFRNTTYLGPARARSERYYRSQELEVSEISPDGQNLPMFLASLSTTEQGRFSDWVEEAFGFGVLVERKEGHVSIKLRQRTISVNVADTGYGVSQILPVLAQIWWATQIPRNYTRQMRHGLRPITMEQPELHLHPAHQAKLADVFQSAIERSNASGPEAVLLIETHSEALINRLGELIEYGKIAANDVQVVIFSARGEGEELNTEISTSTFDDNGALRDWPYGFFNY”, the “soluble on expression in E. coli” value was “not soluble”.
For “MARFVVLVIDSFGVGAMKDVTLVRPQDAGANTCGHILSQLPHLQLPTLETLGLINALGYAPGDMQPSDSATWGVAELQHEGGDTFMGHQEILGTRPLPPLRMPFRDVIDRVEQALVSAGWQVERRGDDLQFLWVNQAVAIGDNLEADLGQVYNITANLSVISFDDAIKIGRIVREQVQVGRVITFGGLLTDSQRILDAAESKEGRFIGINAPRSGAYDNGFQVVHMGYGVDEKVQVPQKLYEAGVPTVLVGKVADIVNNPYGVSWQNLVDSQRIMDITLNEFNTHPTAFICTNIQETDLAGHAEDVARYAERLQVVDRNLARLVEAMQPDDCLVVMADHGNDPTIGHSHHTREVVPVLVYQQGMIATQLGVRTTLSDVGATVCEFFRAPPPQNGRSFLSSLRFAGDTLGKWYYLNSNGAMVTGSQTIDGKVYNFASSGEWI”, the “soluble on expression in E. coli” value was “not soluble”.
With “MGSDKIHHHHHHMSSDSRDLARSATAWPFQEARALLDERLKGKAPDKGYVLFETGYGPSGLPHIGTFGEVARTTMVRRAFSLLAPEIPTRLFAFSDDMDGLRKVPDNIPNKEMVAKHLGKPLTRIPDPFGTHESFGHHNNARLCSFLDTFGFEYEFQSATDWYKSGRFDAALLGVLKHYDEVINVVLPTLGDERRATYSPFLPVCPDTGIVLQVPVVERNVEAGTIVYKREDGKLIETPVTGGACKLQWKADWGMRWVALGVDYEMSGKDLIPSVQLSTRIATILGGRAPLNLTYELFLDDQGQKISKSKGNGLAVEDWLKYAPQESLALFMYQKPKTAKRLYFDVIPRAVDEYLAYLGKFPSEEPGKKLDNPVWHIHGGKPPAEDAHLSFNILMNLVSVCHSDDPAVIWGFIKRYAPGAAPETAPILNGLVGYAIAYFKDFVKPNMKYRKATPDEVEAFTALKDGLLALPADASVDDIQNLVYAIGKRPCFGELKAWFKACYEVLLGNDQGPRMGSFIKLFGIAETIALLDKAIAGEDM” the “soluble on expression in E. coli” value was “not soluble”.
In the case of “MTSVNKKRNARKNQEPTSNMTIETEDGTQADRPKKRPAKKRSKVVRRAAQYGDVNEPILRDFVKATIQTGVKQLSTEFLNLKMETQPCNKPKTGHEGHPEKNRYKDVYCIDDTRVVLKWPEDSPSDYIHANWVKINGANKFICTQGPTEKTVDDFYRLIWQEKAPCVVMLCNIMECGKKKCEQYWPETADGQMILMDGKLTVKIAEPAKEVEQNILLMKITVIDDKGTSHNFEHWQWKAWPDRGVPELPMALKTASPIVVHCSAGIGRTGSIVGLEIALVKFCAGEKVVLKDIVKEIRNQRHGSVQTDAQYLFMHRVLLALAENRKITSPELSAFVAEYDKVIATKNG”, the “soluble on expression in E. coli” value is reported as “not soluble”.
For “METKDLIVIGGGINGAGIAADAAGRGLSVLMLEAQDLACATSSASSKLIHGGLRYLEHYEFRLVSEALAEREVLLKMAPHIAFPMRFRLPHRPHLRPAWMIRIGLFMYDHLGKRTSLPGSTGVRFGADSVLKPEIVRGFEYSDCWVDDARLVLANAQMVVRKGGEVLTRTRATAARRENGLWIVEAEDIDTGKKYVWQARGLVNATGPWVKQFFDEGMHLPSPYGIRLIKGSHIVVPRVHNQKQAYILQNEDKRIVFVIPWMEEFSIIGTTDVEYKGDPKAVKIEESEINYLLKVYNAHFQKQLGRDDIVWTYSGVRPLCDDESDSPQAITRDYTLDIHDENGKAPLLSVFGGKLTTYRKLAEHAMEKLASYYPGIGPAWTKTCVLPGGDIDGSREDYAAKLRRRYPFLTESLARHYSRTYGSNTEWILGEATSLLDLGEDFGHEFYEAELKYLVDHEWVRRTEDAIWRRTKEGMWLTAEQQSRITQWLAAYVEKHQLSMAS”, the “soluble on expression in E. coli” value was “not soluble”.
In the case of “GSGATSAAGKPQETFLDFNESPYGPSAKARAAMQRAAALCGRYDYDAQDALVGLFAKQNGIPAECVHAYCGSRQPLQYAVAAFTGKERGLVIADPSYDSVVGAAQAQGAKVAAVPLDAEAAHDIERMLAAAQRDAGLIYICNPNNPTGTLTPHERIVRAIERKPERSVVLVDEAYIHFSDAPSVVGLAVQRQDVLVLRTFSKLYGMAGARLGLAIGHPQLLARLERFGGHNVVPSPTAHAGLESLRDDDLVPRRKQQNAEVRERTIAWLRQQGFRCTASQSNCFMVDMRRPAELVIAELEKQRVHVGRPWASWPNWVRVTVGSEEEMQAFR”, the “soluble on expression in E. coli” value is reported as “not soluble”.
In the case of “MSTPTPKVGFVSLGCPKALVDSERILTQLRMEGYEVVPTYEDADVVVVNTCGFIDSAKAESLEVIGEAIAENGKVIVTGCMGVEEHAIRDVHPSVLAVTGPQQYEQVVTAVHEVVPPKTEHNPLVDLVPPQGVKLTPRHYAYLKISEGCNHSCSFCIIPSMRGKLVSRPVGDVLSEAERLVKAGVKELLVISQDTSAYGVDLKYKTDFWNGQPVKTRMKELCEALSSMGVWVRLHYVYPYPNVDDVIPLMAAGKLLPYLDIPFQHASPKVLKAMKRPAFEDKTLARIKQWREICPELTIRSTFIVGFPGETEEDFQYLLDWLTEAQLDRVGCFQYSPVEGAPANELGLEPVPDEVKQDRWERFMAHQQAISAARLQLKVGKEIEVLIDEVDEQGAVGRSWADAPEIDGNVFVDSDELKPGDKVRVRITDADEYDLWAELVLEHHHHHH”, the “soluble on expression in E. coli” value is reported as “soluble”.
With “MSTLLAILFLLPFYTFSLNKKPEEVLKGLYPSAEIEVEDIILTEEQVKEVEKLSGTKLNTRFVTFYIVKKDGKVLAYGYVDIHRVRTKPEAVLYVISPKGKIELIEVLAFHEPLEYLPPKNWLKLFEGKDINAPLRVKKDIPNVTGATLTARAITKNAKKVLALWQVLFGGKE” the “soluble on expression in E. coli” value was “not soluble”.
In the case of “MRPTRKCEFCGKTFVPRSGMQKYCSEECQAETKRLRKKRQQDLINGIEPIMDLQHQEYLTFSKAAILMGCTRQYIYKLVANGKLKASRLSSRMAFVRKADIEKMFEGHPYKRVVPASKSKLSKKAKAEKPTQNQEPTKGKEENDVLDYYSGEEVMSIYKVKKSWLYTSAKRNQIPMCRIAGKNYYSKRHIDEFFGTAVDLNSITEWVTADDVEEAFSMSKSALRAYTYRHKIPTKREYGRTYYSKEHLEELRRTDLMSDDSYYTTEQVQQIYGLTSANICHIVRVHHISKVKVGVKNLLLKTDVERAMAERAAKGL”, the “soluble on expression in E. coli” value is reported as “not soluble”.
For “MGSDKIHHHHHHMPGSHNITKQTGASKMSSTRGAFFPDALMQQVKARFHHVDHDLDGRARLFFDNAGGSFRLKAAVDAYARIDALPDCPERIHERALDLQAIQSRGEDDVRTILNAQGGTVYASLTASGAMFDMVRAIMENVPGTNAVTTVLEHPSSYDAMTYYAERTGKTLRIAPSNPETGGVDVDAIVSLIDADTALLSVMFASNISGAKFDIEAIVARARQKKPGLFIVVDAVQHAPHGIIDLQRTPVDGINFAPYKFFGCRGSGISWLSPRAAALPHHRLAAKESGVWELGSPAPAQFAVVTSIVDYVKWIGRYFVDSDDRRTLFVEGMHRIELHERALLAALLDGCGGRRGLRSIDGVEVYWDHDDLTKRDLIVGIGFAHLEPTQAVREYEKHGVIVYERVASSLYSGRMLKSFRLAGAVRISPLHCHAPDDIARFLAITGTLAANR”, the “soluble on expression in E. coli” value was “not soluble”.
For “MHPRKIEIVTAAVTCFLERGYHQTGIRDIARQAGVSLGNLYNHFAGKEAVLAFIAELEGRELAAFVDMLSDPEEPYAALERFIWAYAAYAARPENALLGLELMAEALRNPTISQVFDGNRHQLVAALMGCLERGVSTGRFRHLDDTRALALMILDTLEGQGLRQLDRKTPDPDAVRTLCAVLTTGLLARDQSPPPVPCNTPCSSA”, the “soluble on expression in E. coli” value was “not soluble”.
With “MDNIKIIVASDSIGETAELVARAGVSQFNPKQCKHEFLRYPYIESFENVDEVIQVAKDTNAIIVYTLIKPEIKKYMISKVNEHALKSVDIMGPLMELLSNSIEETPYYEPGMVHRLDDAYFKKIDAIEFAVKYDDGKDPKGLPKADIVLLGISRTSKTPLSQYLAHKSYKVMNIPIVPEVTPPDGLFNVDPSKCIALKISEEKLNRIRKERLKQLGLGDKARYATEARIQEELDYFEKLVDKIGCPVIDVSDKAIEETANDIIHFIEQNKSKLEHHHHHH” the “soluble on expression in E. coli” value was “soluble”.
With “MISLNNRLTTVSRFLKQGTIADIGSDHAYLPIYAIQNHLCECGIAGEVIQGPFQAAVKNVAANHLVERIDVRLGDGLSVIHPEDVIDNITICGMGGPLIAKILKDGQDKLSQHPRLILQSNIQTENLRQTLQQLNYEIIDEIIMEEKGHIYEIVVA” the “soluble on expression in E. coli” value was “not soluble”.
With “MGSDKIHHHHHHMSIRGKAFIVGAYEHPGRNLPDHSVQQIHAECAMGALSDAGLSIKDVDGYFSNGQLGFGGISMAEYLGLRLSYIDSTFTGGSSYMAHVGHAAAAIAAGKCKVALITQGAKVRGVIRGAKHTADTPEFPFETVYGETNAAIYALAARRHMHEYGTTAEQLAAVKVAAAAYAQHNPNALLRKLVSIDDVMNSPIIADPLHRLDCCVVTDGGGALVLVAPEIARSLKRQSVKLLGHAEAIRHGGDGPSDFASTAAALSGPRAFTEAGVSPRDVRYASIYDSFTITVIMTLEDLGFCGKGEGGAFVASGALGLDGLLPINTDGGGLCNNHPGYQGGMVRTIEAVRQLRGEANPNTQVKNCTIALAHGTGGGMSRHASVTLVLGQEDA” the “soluble on expression in E. coli” value was “not soluble”.
In the case of “MAHHHHHHMSSPERGASPPPAEEDKKEKRVIIILEGAHLQLIETKRYIYELANSMKHKHLLRDKKKEEEIRNFRPDILHQCLIHLLESALNKYGLLQVYIKTHDNQLFFVSSNLKIPKTYDQFESLMVTFLRKYKIKANEKNLCLLKFLKNDYNAILPINGKKIGLSVKGRKVHLPDYVQNFQNENMPVTFFIGAVAYSNPITKLENLDDNISISEFSLSAATCCSTICSEFENLWGVF”, the “soluble on expression in E. coli” value is reported as “soluble”.
For “MSLARVELHVHLDGAVGVEELYNISVKRRLQLPGGVKSAAELQAYIIRISPAWHRFDVVNDIIGGDEAVIRDVAEGFVGRQARAGIVYTEVRYDPERLSRSGLANVSISRQAAVRAVRDGLRVGAEKHGVVAYQILCAMRGKSAEQCMATATLAAQMRSTSMGGVVGLDLAGDEVTYRNAPYVGCLRYAKRDLRLNITVHSGEFTETPADEVRSAVVDMGADRVGHGYAAVRNAATLSLVKERLIHVEACPRSAQLHGDLDALDEYRRAQLNFGLNTDDPSVFFGNGTIALDEAIVQDVLHYSVDEVRNAYANALSAAFGPTSAIPGLLRGSAPIVVEGHHHHHH”, the “soluble on expression in E. coli” value was “soluble”.
With “MGSDKIHHHHHHMGNSVLKMMIDAGPIMRTVSLPRGRHSLHTMPTSTGYEVRSDATYDWDGRKRGQTPFTVLQHTISGAGNLRYENSTYRVTPGQTLLVLVPHNHRYWLEPGGRWEFFWISMNGEEALRIHNAILTAMGPIFNLNQQTVEHLADCSQRLIAGGAETPGRASAIAYEAAMALYDDVFGSHPTLSAEYRTMQHVIDHISANLDQSLSVEQLAAVSGLSRAHFSRVFAASEGMPPAEFVLHKRLKRAVKLLTKGSHLSVKEISTMCGFEEPNYFSKVFRRHFGASPTEFRTTGMYSSILQGGVEAETKPARFHRPDVNE” the “soluble on expression in E. coli” value was “not soluble”.
